Target: human IL-2 receptor (IL-2Rα, IL-2Rβ, IL-2Rγ) (human) (UniProt P01589)
Assay: cell-based or functional assay

human IL-2 receptor (IL-2Rα, IL-2Rβ, IL-2Rγ) (human), sequence (P01589 22-272, chain 1 of 3): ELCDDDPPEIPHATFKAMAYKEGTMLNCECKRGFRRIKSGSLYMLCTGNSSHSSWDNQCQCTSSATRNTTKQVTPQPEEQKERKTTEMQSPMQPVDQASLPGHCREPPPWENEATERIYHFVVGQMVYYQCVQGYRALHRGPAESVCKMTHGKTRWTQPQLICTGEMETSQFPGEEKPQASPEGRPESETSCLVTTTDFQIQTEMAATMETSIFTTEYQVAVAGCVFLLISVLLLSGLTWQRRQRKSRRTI
human IL-2 receptor (IL-2Rα, IL-2Rβ, IL-2Rγ) (human), sequence (P14784 27-551, chain 2 of 3, further chain): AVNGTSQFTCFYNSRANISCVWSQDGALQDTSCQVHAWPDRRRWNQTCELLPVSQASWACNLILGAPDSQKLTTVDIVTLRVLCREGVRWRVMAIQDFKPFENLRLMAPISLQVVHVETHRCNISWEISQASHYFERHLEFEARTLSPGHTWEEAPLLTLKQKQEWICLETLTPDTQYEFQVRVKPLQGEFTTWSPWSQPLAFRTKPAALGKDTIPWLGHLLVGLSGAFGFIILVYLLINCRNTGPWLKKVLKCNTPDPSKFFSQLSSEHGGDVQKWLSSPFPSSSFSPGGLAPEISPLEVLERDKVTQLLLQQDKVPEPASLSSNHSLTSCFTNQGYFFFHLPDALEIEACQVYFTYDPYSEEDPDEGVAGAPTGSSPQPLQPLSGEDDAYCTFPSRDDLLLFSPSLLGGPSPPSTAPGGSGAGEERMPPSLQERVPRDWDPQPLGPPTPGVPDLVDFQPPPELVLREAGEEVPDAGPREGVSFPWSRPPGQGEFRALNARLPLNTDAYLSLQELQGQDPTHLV
human IL-2 receptor (IL-2Rα, IL-2Rβ, IL-2Rγ) (human), sequence (P31785 23-369, chain 3 of 3, further chain): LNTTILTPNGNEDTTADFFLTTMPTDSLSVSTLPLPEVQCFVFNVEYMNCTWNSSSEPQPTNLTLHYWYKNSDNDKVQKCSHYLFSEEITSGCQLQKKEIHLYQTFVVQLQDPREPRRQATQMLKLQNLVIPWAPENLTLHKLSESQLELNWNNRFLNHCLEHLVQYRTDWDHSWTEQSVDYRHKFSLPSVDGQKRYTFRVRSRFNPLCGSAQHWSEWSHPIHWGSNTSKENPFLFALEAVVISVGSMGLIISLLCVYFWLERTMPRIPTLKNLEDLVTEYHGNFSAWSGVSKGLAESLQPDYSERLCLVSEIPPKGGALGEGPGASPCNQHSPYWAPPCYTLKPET

B1: Fab-Fc-IL-2 mutant-CD3 Ab (protein, part only; not given: constant regions and IL-2 junction, not shown: a dimerising Fc or GST)
light: EIVMTQSPGTLSLSPGESATLSCSASLSVSFMHWFQQKPGHAPRLLIYRTSNLASGVPDRFSGSGSGTDFTLTISRLEPEDFAVYYCQQRSSDPPTFGQGTRLEIKRTVAAPSVFIFPPSDEQLKSGTASVVCLLNNFYPREAKVQWKVDNALQSGNSQESVTEQDSKDSTYSLSSTLTLSKADYEKHKVYACEVTHQGLSSPVTKSFNRGEC
heavy, part 1: EVQLVESGGGLVQPGRSLRLSCTASGFTFSYFWMNWVRQAPGKGLEWVGEIRLRSDNYATHYAESVKGRFTISRDDSKSIAYLQMNSLKTEDTALYYCTRDWEFTYWGQGTTVTVSSAS
heavy, part 2: EVQLVESGGGLVQPGRSLRLSCTASGFTFSYFWMNWVRQAPGKGLEWVGEIRLRSDNYATHYAESVKGRFTISRDDSKSIAYLQMNSLKTEDTALYYCTRDWEFTYWGQGTTVTVSSASAPTSSSTKKTQLQLEHLLLDLQMILNGINNYKNPKLTDMLTFEFYMPKKATELKHLQCLERELKPLEEVLNLAQSKNFHLRPRDLISNINVIVLELKGSETTFMCEYADETATIVEFLNRWITFCQSIISTLT
- Percent T-cell proliferation (PBMC proliferation assay): 52%

From patent US20240190962A1
